# Measurements as given in the supplement of paper PMC7877785.
# ± gives the uncertainty stated by the source.
# Assay: self-splicing fitness, log relative to wild type (ln ratio); higher = more splicing; Tetrahymena group I intron in knt gene, E. coli kanamycin selection, DiMSum; sequences stand for … in CUCUCU…GGAGGGAAAAGUUAUCAGGCAUGCACCUGGUAGCUAGUCUUUAAACCAAUAGAUUGCAUCGGUUUAAAAGGCAAGACCGUCAAAUUGCGGGAAAGGGGUCAACAGCCGUUCAGUACCAAGUCUCAGGGGAAACUUUGAGAUGGCCUUGCAAAGGGUAUGGUAAUAAGCUGACGGACAUGGUCCUAACCACGCAGCCAAGUCCUAAGUCAACAGAUCUUCUGUUGAUAUGGAUGCAGUUCACAGACUAAAUGUCGGUCGGGGAAGAUGUAUUCUUCUCAUAAGAUAUAGUCGGACCUCUCCUUAAUGGGAGCUAGCGGAUGAAGUGAUGCAACACUGGAGCCGCUGGGAACUAAUUUGUAUGCGAAAGUAUAUUGAUUAGUUUUGGAGUACUCGUGGUCG
# Summary of the method: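 Library with all eight P1ex-region intron nucleotides randomised, intron inside the knt kanamycin-resistance gene on pET-22b(+), in E. coli BL21(DE3). Cells grew overnight at 37°C or 30°C on LB agar with or without 25 μg/mL kanamycin (plus 100 μg/mL carbenicillin, 50 μM IPTG, 0.2% rhamnose), in six replicate transformations. Pooled colonies were amplicon-sequenced on Illumina HiSeq 2500. DiMSum fitness is the error-weighted combination of wild-type-normalised replicate fold changes, kanamycin versus none.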
Sequence,self-splicing fitness (ln) (30 °C),self-splicing fitness (ln) (37 °C)
ACAUAGCAAUAUUACGAAGU,-2.67 ± 0.21,-2.85 ± 0.23
GGAGAGCAAUAUUACGGGCC,-2.35 ± 0.33,
UAACAGCAAUAUUACGAUCG,-0.667 ± 0.07,-0.00548 ± 0.098
UUAGAGCAAUAUUACGAACU,,-1.92 ± 0.43
AAGAAGCAAUAUUACGACGG,-1.52 ± 0.078,-1.15 ± 0.14
AUGCAGCAAUAUUACGACGU,-0.0321 ± 0.072,0.706 ± 0.083
UCGAAGCAAUAUUACGUCCG,-0.163 ± 0.1,-0.412 ± 0.12
GCCAAGCAAUAUUACGGAAA,-1.46 ± 0.16,-1.14 ± 0.13
CCGGAGCAAUAUUACGCCUG,-2.36 ± 0.24,-1.8 ± 0.24
UAAAAGCAAUAUUACGUCCA,0.0284 ± 0.091,-0.623 ± 0.12
ACCCAGCAAUAUUACGAGCU,-4.29 ± 0.21,-2.17 ± 0.14
UGCUAGCAAUAUUACGAAAU,-3.79 ± 0.4,-1.67 ± 0.36
AGAAAGCAAUAUUACGGAGG,-3.33 ± 0.16,-2.72 ± 0.3
UGUCAGCAAUAUUACGCUUA,-0.0584 ± 0.077,0.408 ± 0.11
GCGCAGCAAUAUUACGACGC,-2.89 ± 0.33,-1.81 ± 0.35
CCACAGCAAUAUUACGUGGA,-3.7 ± 0.16,-3.16 ± 0.16
CUAUAGCAAUAUUACGAUAG,,-2.54 ± 0.39
UUAAAGCAAUAUUACGGUAU,-2.14 ± 0.086,-1.22 ± 0.11
UUAGAGCAAUAUUACGCCUU,-2.34 ± 0.13,-1.08 ± 0.16
CUGUAGCAAUAUUACGGAGA,-2.5 ± 0.21,-3.56 ± 0.34
AGCCAGCAAUAUUACGUAAC,-2.67 ± 0.1,-2.04 ± 0.2
CUGAAGCAAUAUUACGGACA,-1.79 ± 0.14,-2.22 ± 0.27
GGGGAGCAAUAUUACGUUAA,-2.53 ± 0.4,-1.95 ± 0.35
GGGGAGCAAUAUUACGCUUG,-2.43 ± 0.17,-0.967 ± 0.18
GGGUAGCAAUAUUACGCCGU,-0.463 ± 0.2,0.576 ± 0.23

Sequence,self-splicing fitness (ln) (30 °C),self-splicing fitness (ln) (37 °C)
UUUAAGCAAUAUUACGGCUA,-0.342 ± 0.084,0.291 ± 0.1
AGAAAGCAAUAUUACGUAGC,-4.04 ± 0.22,-2.5 ± 0.2
UAUGAGCAAUAUUACGAUGU,-4.02 ± 0.37,-3.62 ± 0.46
AACCAGCAAUAUUACGUACU,0.015 ± 0.053,0.248 ± 0.066
CCUGAGCAAUAUUACGGGCU,-2.51 ± 0.16,-2.3 ± 0.32
GAAAAGCAAUAUUACGUCUA,-0.367 ± 0.053,0.0921 ± 0.066
GAGAAGCAAUAUUACGCCGG,-2.05 ± 0.44,0.0344 ± 0.4
UAAGAGCAAUAUUACGACAG,-3.17 ± 0.25,-2.34 ± 0.23
AGUAAGCAAUAUUACGAAUA,-1.84 ± 0.38,
GCGUAGCAAUAUUACGAGUG,-1.78 ± 0.15,-1.19 ± 0.21
AGUUAGCAAUAUUACGCCGA,-2.78 ± 0.46,-1.71 ± 0.39
GUGAAGCAAUAUUACGAUAC,-0.501 ± 0.11,-0.461 ± 0.14
UCCUAGCAAUAUUACGCUUC,-3.48 ± 0.18,-3.1 ± 0.23
AGCCAGCAAUAUUACGCCAU,-1.5 ± 0.2,-1.89 ± 0.32
CAGGAGCAAUAUUACGUUAA,-3.28 ± 0.43,-2.66 ± 0.26
GUCAAGCAAUAUUACGUCUA,-1.94 ± 0.1,-0.679 ± 0.079
UAAGAGCAAUAUUACGAUUA,-0.804 ± 0.1,0.2 ± 0.1
AGGUAGCAAUAUUACGUCAC,-3.764 ± 0.036,-2.23 ± 0.042
GAACAGCAAUAUUACGACGG,-3.4 ± 0.19,-1.81 ± 0.18
CUAGAGCAAUAUUACGACUG,0.0552 ± 0.11,-0.585 ± 0.14
GAAAAGCAAUAUUACGCAUU,-3.24 ± 0.17,-0.376 ± 0.11
CCUAAGCAAUAUUACGGCCC,-2.37 ± 0.29,
UUGCAGCAAUAUUACGGACG,-0.806 ± 0.17,-1.1 ± 0.23
UGCCAGCAAUAUUACGACUU,-2.97 ± 0.14,-1.46 ± 0.13
